From the Human Domainome abundance scans (Beltran et al. 2025)
± gives the uncertainty stated by the source.

B1: Double-stranded RNA-specific adenosine deaminase, residues 296 to 358; numbered along this chain, P55265 (parent)
chain: MAEIKEKICDYLFNVSDSSALNLAKNIGLTKARDINAVLIDMERQGDVYRQGTTPPIWHLTDK

Variants of: B1
Test: abundance fitness (aPCA) (normalised: wild type 0, dead -1); higher = more abundant; growth selection in yeast, the domain comes from the species named
Conditions: Homo sapiens

| Variant | abundance fitness |
| --- | --- |
| MAEIKEKIKDYLFNVSDSSALNLAKNIGLTKARDINAVLIDMERQGDVYRQGTTPPIWHLTDK [C9K] | 0.278 ± 0.052 |
| MAEIKEKIYDYLFNVSDSSALNLAKNIGLTKARDINAVLIDMERQGDVYRQGTTPPIWHLTDK [C9Y] | 0.09 ± 0.077 |
| MAEIKEKICDYLFNVSDSSALNLIKNIGLTKARDINAVLIDMERQGDVYRQGTTPPIWHLTDK [A24I] | -0.552 ± 0.094 |
| MAEIKEKICDYLFNVSDSSALNLAKNILLTKARDINAVLIDMERQGDVYRQGTTPPIWHLTDK [G28L] | -0.97 ± 0.093 |
| MAEIKEKICDYLFNVSDSSALNLAKNIPLTKARDINAVLIDMERQGDVYRQGTTPPIWHLTDK [G28P] | -0.234 ± 0.078 |
| MAEIKEKICDYLFNVSDSSALNLAKNISLTKARDINAVLIDMERQGDVYRQGTTPPIWHLTDK [G28S] | -0.474 ± 0.055 |
| MAEIKEKICDYLFNVSDSSALNLAKNIGLTKARDINAVLIDMERQGDVYRQGTTPFIWHLTDK [P56F] | -1.13 ± 0.29 |
| MAEIKEKICDYLFNVSDSSALNLAKNIGLTKARDINAVLIDMERQGDVYRQGTTPTIWHLTDK [P56T] | -0.013 ± 0.091 |
| MAEIKAKICDYLFNVSDSSALNLAKNIGLTKARDINAVLIDMERQGDVYRQGTTPPIWHLTDK [E6A] | -0.148 ± 0.055 |
| MAEIKEKICDYLFNVSDSSALNLAKNIGLTKARDINAVLIDCERQGDVYRQGTTPPIWHLTDK [M42C] | -0.742 ± 0.091 |
| MAEIKEKICDYLFNVSDSSALNLAKNIGLTKARDINAVLIDRERQGDVYRQGTTPPIWHLTDK [M42R] | -0.629 ± 0.051 |
| MAEIKEKICDYLFNVSDSSALNLAKNIGLTKARDINAVLIDTERQGDVYRQGTTPPIWHLTDK [M42T] | -0.636 ± 0.074 |
| MAEIKEKICDYLFNVSDSSALNLAKNIGLTKARDINAVLIDMERQGDVYRQGTTPPQWHLTDK [I57Q] | -0.181 ± 0.068 |
| MAEIKEKICDYLFNVSDSSALNLAKNIGLTKARDINAVLIDMERQGDVYRQGTTPPYWHLTDK [I57Y] | -0.846 ± 0.11 |
| MAEIKEKICDYLFNVSDSSALNLAKNIGLTKARDINAVLIDMERQGDVYRQGTTPPTWHLTDK [I57T] | -0.035 ± 0.059 |
| MAEIKEKICDYLFNVSDSSALNLAKNIGLTKARDINAVLIDMERQGDVYRIGTTPPIWHLTDK [Q51I] | 0.088 ± 0.051 |
| MAEIKEKICDYLFNVSDSSALNLAKNIGLTKARDINAVLIDMERQGDVYRKGTTPPIWHLTDK [Q51K] | 0.053 ± 0.054 |
| MAEIKEKICDYLFNVSDSSALNLAKNIGLTKARDINAVLIDMERQGDVYRFGTTPPIWHLTDK [Q51F] | -0.658 ± 0.095 |
| MAEIKEKICDYLFFVSDSSALNLAKNIGLTKARDINAVLIDMERQGDVYRQGTTPPIWHLTDK [N14F] | -0.385 ± 0.083 |
| MAEIKEKICDYLFGVSDSSALNLAKNIGLTKARDINAVLIDMERQGDVYRQGTTPPIWHLTDK [N14G] | -0.236 ± 0.047 |
| MAEIKEKICDYLFNVSDSSALNLAKNIGLTKARDINAVLIDMERQGDVYRQGTTPPINHLTDK [W58N] | -0.296 ± 0.091 |
| MAEIKEKICDYLFNVSDSSALNLAKNIGLTKSRDINAVLIDMERQGDVYRQGTTPPIWHLTDK [A32S] | -0.103 ± 0.056 |

| Variant | abundance fitness |
| --- | --- |
| MAEIKEKICDYLFNVSDSSALNLAKNIGLTKARDIDAVLIDMERQGDVYRQGTTPPIWHLTDK [N36D] | 0.131 ± 0.091 |
| MAEIKEKICDYLFNVSDSSALNLAKNIGLTKARDIMAVLIDMERQGDVYRQGTTPPIWHLTDK [N36M] | -0.184 ± 0.048 |
| MAEIKEKICDYLFNVSDSSALNLAKNIGLTKARDIIAVLIDMERQGDVYRQGTTPPIWHLTDK [N36I] | -0.438 ± 0.11 |
| MAEIKEKICDYLFNVSDSSALNLAKNIGLTKARDISAVLIDMERQGDVYRQGTTPPIWHLTDK [N36S] | -0.202 ± 0.054 |
| MAEIKEKICDYLFNVSDSSALNLAKNIGLTKARDINAVLIDMMRQGDVYRQGTTPPIWHLTDK [E43M] | -0.848 ± 0.12 |
| MAEIKEKICDYLFNVSDSSALNLAKNIGLTKARDQNAVLIDMERQGDVYRQGTTPPIWHLTDK [I35Q] | -0.348 ± 0.13 |
| MAEIKEKLCDYLFNVSDSSALNLAKNIGLTKARDINAVLIDMERQGDVYRQGTTPPIWHLTDK [I8L] | -0.903 ± 0.17 |
| MAEIKEKVCDYLFNVSDSSALNLAKNIGLTKARDINAVLIDMERQGDVYRQGTTPPIWHLTDK [I8V] | -0.649 ± 0.29 |
| MAEIKEKICDYSFNVSDSSALNLAKNIGLTKARDINAVLIDMERQGDVYRQGTTPPIWHLTDK [L12S] | -0.295 ± 0.096 |
| MAEIKEKICDYTFNVSDSSALNLAKNIGLTKARDINAVLIDMERQGDVYRQGTTPPIWHLTDK [L12T] | -0.99 ± 0.36 |
| MAEIKEKICDYLFNVSDSSALNLAKNIGLTKARDINAVLIDMERQGDVYRQGTTPPIWHLTDR [K63R] | 0.032 ± 0.1 |
| MAEIKEKICDYLFNVSDSSALNLAKNIGLTKARDINAVLIDMERQGDVYRQGTTPPIWHRTDK [L60R] | -0.45 ± 0.044 |
| MAEIKEKICDYLFNVSDSSALNLAKNIGLTKARDINAVLIDMERQGDVYRQGTTPPIWHTTDK [L60T] | -0.551 ± 0.076 |
| MAEIKEKICDYLFNVSDSSALNLAKNIGLTKARDINAVLIDMERQGDVYRQGTTPPIWHDTDK [L60D] | -0.356 ± 0.1 |
| MAEIKEKICDYLFNVSDSSALNLAKNIGLTKARDINAVLIDMERQGDVYRQGTTPPIWHATDK [L60A] | -0.196 ± 0.06 |
| MAEIKEKICDYLFNVSDSSALNLAKNIGLTKARDINAVLIDMERQGDVYRQGTTPPIWHKTDK [L60K] | -0.494 ± 0.09 |
| MAEIKEKICDYLFNVSDSSALNLAKVIGLTKARDINAVLIDMERQGDVYRQGTTPPIWHLTDK [N26V] | 0.044 ± 0.047 |
| MAEIKEKICDYLFNVSDSSALNLAKQIGLTKARDINAVLIDMERQGDVYRQGTTPPIWHLTDK [N26Q] | 0.009 ± 0.087 |
| MAEIKEKICDYLFNVSDSSALNLAKNIGLTKARWINAVLIDMERQGDVYRQGTTPPIWHLTDK [D34W] | -0.984 ± 0.12 |
| MAEIKEKICDYLFNVSDSSALNLAKNIGLTKARHINAVLIDMERQGDVYRQGTTPPIWHLTDK [D34H] | -0.578 ± 0.079 |
| MAEIKEKICDYLFNVSDSSALNLAKNIGLTKARDINAVLIWMERQGDVYRQGTTPPIWHLTDK [D41W] | -1.12 ± 0.19 |
